{"source": "patent US7951210B2", "about": "“Support-colouring means” (Doublet Luc, priority 2004, dated 2011)", "key": {"[1]": {"experiment": "Restoration of the enzymatic activity (ABTS oxidation) after photolysis at 366 nm", "assay_type": "biochemical", "conditions": "after irradiating for 30 min at 366 nm; ABTS 1 mM, H2O2 1 mM", "protocol": "The oxidation catalyst is reactivated by irradiation of the solutions of the various conjugates (1 mg/ml) in sodium acetate buffer (25 mM, pH 4.4). Photolysis takes place at 366 nm (100 W UV lamp, 7 mW/cm^2 at a distance of 30 cm); the irradiation times vary from 5 to 30 min. This stage is advantageously carried out in the presence of 5 mM of 2-ethanolamine in order to trap possible cross reactions between photolysis products and hemoglobin.\nThe restoration of the enzymatic activity is determined in microtitration plates as described above in the presence of ABTS (1 mM) and H2O2 (1 mM)."}, "[2]": {"experiment": "Inhibition of the oxidation of ABTS by NPE-hemoglobin conjugates (microtitration plate, H2O2)", "assay_type": "biochemical", "conditions": "oxidation of ABTS 1 mM, H2O2 1 mM, sodium acetate buffer pH 5, before dialysis", "protocol": "Bovine hemoglobin in aqueous solution (32 μM) is treated with different concentrations of 1-(2-nitrophenyl)ethyldiazoethane (NPE-diazo) in solution in DMSO at 20° C. for 1 h in darkness. The final concentration of DMSO should not exceed 5%. The NPE-diazo concentrations vary from 50 to 100 equivalents with respect to the hemoglobin. The coupling reaction is halted by addition of a 100 mM acetate buffer solution at pH 4.4 (1 equivalent with respect to NPE-diazo). The contact times vary from 10 to 30 min. The reaction mixture is subsequently dialyzed against water, between 4 and 20° C., between 1 and 16 hours, against 1000 volumes of water. The conjugate is stored at 20° C.\nThe percentage of inhibition of the oxidation of ABTS [diammonium salt of 2,2′-azinobis(3-ethylbenzothiazolinone-6-sulfonic acid), 1 mM] is determined before dialysis on 96-well microtitration plates (Costar, Corning Incorporated) in sodium acetate buffer, […], pH 5, in the presence of 1 mM of hydrogen peroxide. The number of molecules attached per hemoglobin molecule is determined by mass spectrometry (electrospray)."}}, "data": [{"substance": "Hb-50: Bovine hemoglobin treated with 50 equivalents of 1-(2-nitrophenyl)ethyldiazoethane (NPE-diazo); NPE-hemoglobin conjugate", "values": [{"measurement": "activity recovered after irradiation", "setting": "[1]", "result": 57, "unit": "%"}, {"measurement": "Residual activity (%)", "setting": "[2]", "result": 12.6, "unit": "%"}]}, {"substance": "Hb-75: Bovine hemoglobin treated with 75 equivalents of 1-(2-nitrophenyl)ethyldiazoethane (NPE-diazo); NPE-hemoglobin conjugate", "values": [{"measurement": "activity recovered after irradiation", "setting": "[1]", "result": 28, "unit": "%"}, {"measurement": "Residual activity (%)", "setting": "[2]", "result": 5.4, "unit": "%"}]}, {"substance": "Hb-100: Bovine hemoglobin treated with 100 equivalents of 1-(2-nitrophenyl)ethyldiazoethane (NPE-diazo); NPE-hemoglobin conjugate", "values": [{"measurement": "activity recovered after irradiation", "setting": "[1]", "result": 16, "unit": "%"}, {"measurement": "Residual activity (%)", "setting": "[2]", "result": 2.5, "unit": "%"}]}, {"substance": "Native hemoglobin: Untreated bovine hemoglobin, oxidation catalyst used as 100% activity reference [reference compound]", "values": [{"measurement": "Residual activity (%)", "setting": "[2]", "result": 100, "unit": "%"}]}]}
